# The DeepSol protein solubility set
# Assay: soluble on expression in E. coli; label from the status in PepcDB or PDB records
row,Sequence,soluble on expression in E. coli
1,SNAMKFSEFRYERPDIAQLQASFQEALDSFRRAGSAALQHEAMKRINELRRRYSTMANLCHIRHTIDTNDEFYKKEQDFFDETEPVVKGLVNDYYRALVSSPFRAELEQVWGKQLFALAETQLKTYAPVIVEDLQKENKLASEYTKLIASAKIMFEGEERTLAQLQPFVESPDRAMRQRASEARFSFFKDYEKELDELYDELVHVRTAIARKLGFQNFVELGYARLGRTDYNADMVAGYRRQVKTHIVPLAAKLRERQRQRIQVEKLYYYDEPFMFPTGNPTPKGDADWIVQNGRQMYEELSPETGEFFRYMVEHELMDLVAKKGKAGGGYCTYIDDYKAPFIFSNFTGTSGDIDVLTHEAGHAFQVYESRHYDIPEYNWPTLEACEIHSMSMEFFTWPWMELFFGEDADKYRFAHLSDALLFLPYGVAVDEFQHAVYENPDMTPAERKSVWRNIEKAYLPTRDYADHDYLERGGFWQRQGHIYTDPFYYIDYTLAQVCAFQFWKRAQEDRASAWRDYVALCRLGGSRPFTELVKSANLQSPFADGAVASVVGHIERWLDSVDDKAL,soluble
2,GSHMTGPVTKEDLGRATWTFLHTLAAQYPEKPTRQQKKDVKELMTILSRMYPCRECADHFKEILRSNPAQAGSQEEFSQWLCHVHNTVNRSLGKLVFPCERVDARWGKLECEQKSCDLHGTSMDF,soluble
3,PQPSRPRKGSLGFGPRKRSTSETPRFNSWPSDDGQPGVQGFAGYKAGMTHVVLVNDEPNSPREGMEETVPVTVIETPPMRAVALRAYEDTPYGQRPLTEVWTDEFHSELDRTLDVPEDHDPDAAEEQIRDAHEAGDLGDLRLITHTVPDAVPSVPKKKPDVMETRVGGGSVSDRLDHALDIVEDGGEHAMNDIFRAGEYADVAGVTKGKGTQGPVKRWGVQKRKGKHARQGWRRRIGNLGPWNPSRVRSTVPQQGQTGYHQRTELNKRLIDIGEGDEPTVDGGFVNYGEVDGPYTLVKGSVPGPDKRLVRFRPAVRPNDQPRLDPEVRYVSNESNQG,soluble
4,MGSDKIHHHHHHMMKTVNELIKDINSLTSHLHEKDFLLTWEQTPDELKQVLDVAAALKALRAENISTKVFNSGLGISVFRDNSTRTRFSYASALNLLGLAQQDLDEGKSQIAHGETVRETANMISFCADAIGIRDDMYLGAGNAYMREVGAALDDGYKQGVLPQRPALVNLQCDIDHPTQSMADLAWLREHFGSLENLKGKKIAMTWAYSPSYGKPLSVPQGIIGLMTRFGMDVTLAHPEGYDLIPDVVEVAKNNAKASGGSFRQVTSMEEAFKDADIVYPKSWAPYKVMEERTELLRANDHEGLKALEKQCLAQNAQHKDWHCTEEMMELTRDGEALYMHCLPADISGVSCKEGEVTEGVFEKYRIATYKEASWKPYIIAAMILSRKYAKPGALLEQLLKEAQERVK,not soluble
5,WWYEGYRPNAGWALTDKPTYRDQQMQDKLDALSLYDILEREIIPLYYDKEDKSYSEGWIRYIRRSMMYIAPHFTMKRMLDDYYDKFYGPLAQRHRSISASSFALASEIADWKQQTATHWDEMRVVRVAATGFGLCLQDNHTMQTLEIEIEKGNLSAELNVELVVISDDNQGGVSLVQTIPLNLSEQSADNRWQKYNVNCSLKNPGLHRVAIRITPHSDLLPHKMDFAYVRWAAIS,not soluble
6,MNACVSVVCYKSKTLSNGENPLMLQVSKGGKRKYQSLGISINPKYWDFTRNKPKPNCPNKEYIQKIILDKQRELQQRMLELNSEQKEYTTTTLLNNENTKFELKTVSMFYKELIEQYTREDKCGNRLIYKGSFNSLKVFTNGKLDIPFNEIDIAWLNKYEKWLRSKGNRETTISLLFRTLRSAYNKAIKAKCARKSDYPFDDYKINKFDTTTQKRAIAKTDVLKFTTEVQPIGKQQYMELSKDIFVFSYLCGGINFTDIANLTNENIQNGRLHYIRQKTKKPIKIGIPQEAMQIIEKYSKESKG,not soluble
7,MSLIEEEVLKIIKPTEEDKKGIEKVLEIIRERLNKLDFEVEGSFRKGTWLRQDTDIDVFVFYPKDVGKEYLERNALNDIINRIKDLDYTLAYAEHPYVIVNINNVEVDIVPALRVESGDKAITAVDRTPFHTKYVTSHLDERGKDEVRLLKRFMKGIGVYGAELKVQGFSGYATELLIIYYGNFRKVLEEASKWKHPIKIELTKPMKIFSEPLIIPDPVDPKRNVTAAVSLKNIATFSIAAKYYLKNPSIEFFFPSKKVEEKVKGDVLILRLNLDEKSSEDIVWGQIKRSVNKIERALKQYGFRVIDVQAWGDTNNITIAVQLESKNIGQYYLNIGPQYYSGTIEDFIQKNDNIWVGEDGRLYSIKERKEYDAETIAKKNIVLKVKYNIESYWLQNTEDQQIMKFLRKTPTWLKEGHHHHHH,not soluble
